# Source: patent US20240002491A1, “METHODS FOR SELECTING PATIENTS FOR TREATMENT WITH AN NGF ANTAGONIST” (Regeneron Pharmaceuticals, Inc., priority 2022, published 2024)
# Tested on: adults with moderate-to-severe chronic pain associated with osteoarthritis (OA) of the knee or hip
# Assay: Adjudicated arthropathies across the three fasinumab Phase 3 trials
# Format: in vivo, human
# Settings: across all three Phase 3 trials
# From the text: NCT02683239 (R475-PN-1523, or “FACT LTS”), NCT03161093 (R475-OA-1611, or “FACT OA1”), and NCT03304379 (R475-OA-1688, or “FACT OA2”) each were Phase 3 trials evaluating fasinumab in adults with moderate-to-severe chronic pain associated with osteoarthritis (OA) of the knee or hip. All three of these trials enrolled patients with OA of the knee or hip who had inadequate pain relief with acetaminophen and were intolerant to or had inadequate pain relief with opioids, or were unwilling or unable to take opioids. Complete inclusion and exclusion criteria for the trials are described at clinicaltrials.gov/ct2/show/NCT03161093, clinicaltrials.gov/ct2/show/NCT03304379, and clinicaltrials.gov/ct2/show/NCT02683239.
# The FACT LTS study evaluated the long-term safety and tolerability of fasinumab, including adverse events of special interest such as joint damage (e.g. arthropathies), compared with placebo. A total of 2,411 patients were randomized to one of the following treatment arms: (1) fasinumab 1 mg subcutaneous (SC) every 8 weeks (Q8W); (2) fasinumab 1 mg SC every 4 weeks (Q4W); or (3) matching placebo SC Q4W. This study also included a substudy evaluating the efficacy of fasinumab in these same patient groups (n=215 in fasinumab 1 mg Q8W, n=217 in fasinumab 1 mg Q4W, n=214 in placebo).
substance,measurement,value
Fasinumab: fully-human high-affinity monoclonal antibody directed against NGF; HCVR/LCVR SEQ ID NOs: 2/10,rates of adjudicated arthropathies compared with placebo or NSAIDs,"higher rates of arthropathies were adjudicated in patients treated with fasinumab compared with placebo or NSAIDs, which were dose-dependent"
